Test results taken from publication PMC5892705.

Experiments:
[1] = biological target: human vasopressin V1a receptor (human) (UniProt P37288)
[2] = biological target: human oxytocin receptor (human) (UniProt P30559)
[3] = biological target: human oxytocin receptor (human) (UniProt P30559); remark: listed apart in the source

Chain of Oxytocin (P01178 whole entry, looked up): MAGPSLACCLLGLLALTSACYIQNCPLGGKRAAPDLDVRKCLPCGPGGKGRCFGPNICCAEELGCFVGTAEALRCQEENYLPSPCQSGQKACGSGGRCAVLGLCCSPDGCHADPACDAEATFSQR
Chain of human oxytocin receptor (human) (P30559 whole entry): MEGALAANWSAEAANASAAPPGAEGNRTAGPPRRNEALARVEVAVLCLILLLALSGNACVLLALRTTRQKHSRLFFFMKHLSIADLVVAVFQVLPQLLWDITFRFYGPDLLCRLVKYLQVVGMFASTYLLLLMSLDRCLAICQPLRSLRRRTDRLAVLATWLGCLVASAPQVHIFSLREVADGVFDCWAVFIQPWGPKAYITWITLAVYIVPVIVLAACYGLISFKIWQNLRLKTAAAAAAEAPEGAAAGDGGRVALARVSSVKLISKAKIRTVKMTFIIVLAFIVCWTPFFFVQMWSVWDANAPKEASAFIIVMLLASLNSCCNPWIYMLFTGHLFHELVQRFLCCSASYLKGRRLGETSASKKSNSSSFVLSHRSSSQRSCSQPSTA
Chain of human vasopressin V1a receptor (human) (P37288 whole entry): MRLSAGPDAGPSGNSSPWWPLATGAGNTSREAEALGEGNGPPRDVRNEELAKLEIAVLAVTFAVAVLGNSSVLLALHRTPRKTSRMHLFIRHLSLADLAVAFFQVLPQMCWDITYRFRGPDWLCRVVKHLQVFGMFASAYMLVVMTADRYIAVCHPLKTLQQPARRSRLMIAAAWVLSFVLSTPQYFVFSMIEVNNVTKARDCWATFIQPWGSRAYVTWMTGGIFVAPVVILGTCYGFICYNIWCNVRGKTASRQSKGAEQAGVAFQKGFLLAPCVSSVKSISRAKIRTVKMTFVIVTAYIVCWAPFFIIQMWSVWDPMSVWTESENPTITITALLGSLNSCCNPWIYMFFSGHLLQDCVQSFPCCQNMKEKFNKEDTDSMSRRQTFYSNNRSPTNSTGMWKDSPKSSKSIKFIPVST

| Substance | maximal intracellular Ca2+ in human cardiomyocytes (FLIPR), EC50 [1] [nM] | tissue bath, contraction amplitude of strips of pregnant human myometrium, EC50 [2] [nM] | FLIPR Ca2+ mobilization, Emax [3] [%] |
| --- | --- | --- | --- |
| Oxytocin (from UniProt P01178 20-28) (peptide) | 174 | 1.14 | – |
| d[Se-Se]-OT-OH (peptide) | – | – | 59 |
